Reference: the supplement of paper PMC10567573

B1: PRPH (parent)
chain: DEIEFLKKLHEEELRDLQVSVESQ

Variants of: B1
Assay: protein stability index of a GFP-peptide fusion (GPS, HEK-293T) (PSI 1-6); higher = more stable
Conditions: c terminus: a fixed tail appended
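Note: lentivirally expressed fusions sorted by FACS into six bins by GFP to DsRed ratio, PSI derived from sequencing read proportions per bin multiplied by bin number.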

Protein stability index, by site and new letter:
I3: L 4.84, M 4.96, N 5.46, P 4.94, Q 5.08, R 5.28, S 5.42, T 5.25, V 4.83, W 4.41, Y 4.8
E4: A 4.36, C 3.93, D 4.93, F 3.96, G 4.57, H 4.55, I 4.12, K 4.18, L 4.15, M 4.53, N 4.91, P 4.62, Q 4.34, R 3.98, S 4.93, T 4.16, V 4.21, W 3.18, Y 3.9
F5: A 4.69, C 5.15, D 5.27, E 5.47, G 5.36, H 4.85, I 4.92, K 4.73, L 5.18, M 5, N 4.9, P 5.22, Q 5.41, R 4.79, S 5.07, T 5.1, V 4.95, W 4.42, Y 4.58
L6: A 5.48, C 5.09, D 5.56, E 5.18, F 4.42, G 5.07, H 5.21, I 4.97, K 4.99, M 4.89, N 5.61, P 5.33, Q 5.54, R 4.91, S 5.12, T 5.13, V 4.46, W 4.61, Y 4.72
K7: A 4.11, C 2.85, D 5.06, E 4.83, F 2.11, G 4.52, H 4.21, I 2.03, L 2.37, M 3.07, N 5.18, P 5.04, Q 4.61, R 4.59, S 3.85, T 3.15, V 2.59, W 1.96, Y 2.42
K8: A 5.1, C 3.8, D 4.89, E 4.37, F 3.94, G 4.55, H 4.63, I 4.35, L 4.32, M 4.25, N 4.84, P 5.23, Q 4.98, R 4.61, S 4.15, T 4.78, V 4.06, W 3.45, Y 4.23
L9: A 5.02, C 4.9, D 5.27, E 5.05, F 4.65, G 5.58, H 5.29, I 4.88, K 5.49, M 4.82, N 5.34, P 5.52, Q 4.98, R 5.29, S 5.4, T 5.3, V 5.01, W 4.38, Y 4.44
H10: A 4.42, C 4.56, D 5.25, E 5.23, F 3.47, G 4.64, I 3.37, K 4.78, L 2.52, M 3.88, N 4.16, P 5.1, Q 5.03, R 4.87, S 5.18, T 4.95, V 3.52, W 3.54, Y 4.18
E11: A 4.29, C 4.09, D 4.94, F 3.69, G 4.95, H 4.42, I 4.01, K 4.92, L 4.11, M 3.99, N 4.57, P 4.34, Q 4.08, R 4.23, S 4.52, T 4.46, V 3.99, W 3.21, Y 2.95
E12: A 4.69, C 4.54, D 4.41, F 4.07, G 4.19, H 4.64, I 4.05, K 4.82, L 4.04, M 4.33, N 4.5, P 4.77, Q 4.53, R 4.8, S 4.67, T 4.43, V 4.1, W 4.12, Y 4.07
E13: A 3.9, C 3.59, D 4.97, F 2.85, G 4.83, H 4.45, I 2.74, K 5.25, L 3.27, M 3.46, N 4.97, P 5.05, Q 4.65, R 4.42, S 4.16, T 4.05, V 3.73, Y 3.95
L14: A 4.95, C 5.18, D 5.57, E 4.85, F 4.24, G 5.14, H 5.31, I 4.66, K 4.92, M 5.02, N 5.08, P 4.71, Q 4.84, R 5.22, S 5.18, T 5.78, V 5.27, W 4.38, Y 4.6
R15: A 5.18, C 4.53, D 5.45, E 4.83, F 4.15, G 4.28, H 4.39, I 4.79, K 4.59, L 4.38, M 4.58, N 4.91, P 4.98, Q 4.66, S 4.8, T 4.51, V 4.94, W 3.91, Y 4.58
D16: A 4.6, C 4.28, E 4.31, F 3.1, G 4.95, H 4.67, I 3.82, K 4.94, L 2.97, M 3.9, N 4.2, P 4.59, Q 4.35, R 3.96, S 5.14, T 4.72, V 4.34, W 3.15, Y 3.49
L17: A 5.15, C 4.92, D 5.25, E 4.98, F 4.69, G 5.21, H 4.6, I 4.97, K 4.81, M 4.97, N 4.45, P 5.16, Q 5.15, R 5.06, S 4.9, T 5.06, V 5.02, W 4.8, Y 3.39
Q18: A 4.46, C 4.86, D 5.27, E 4.81, F 3.36, G 5, H 4.69, I 4.4, K 4.63, L 3.89, M 4.37, N 5.11, P 5.3, R 4.62, S 5.08, T 5.36, V 4.38, W 3.39, Y 4.21
V19: A 5.23, C 5.23, D 5.58, E 5, F 4.39, G 5.15, H 5.27, I 5.18, K 5, L 4.85, M 4.76, N 4.87, P 4.93, Q 5.01, R 5.06, S 4.6, T 5.19, W 5.12, Y 4.56
S20: A 4.78, C 5.06, D 4.54, E 5.75, F 3.97, G 4.29, H 4.91, I 4.27, K 4.75, L 4.2, M 4.81, N 4.83, P 4.96, Q 4.86, R 5.1, T 4.87, V 4.88, W 4.45, Y 4.45
V21: A 5.45
